Assay results as given in doi:10.1101/461806 (bioRxiv, 2018).

How the values were obtained:
[1] = target: T1, Cul3NΔ22 (human Cul3 N-terminal domain, residues 23-388, I342R L346D) (human, UniProt Q13618 23-388, I342R | L346D); test: ITC
[2] = target: Cul3N (human Cul3 N-terminal domain, residues 1-388, I342R L346D) (human, UniProt Q13618 1-388, I342R | L346D); test: ITC
[3] = target: T1, Cul3NΔ22 (human Cul3 N-terminal domain, …); test: SEC-MALS
[4] = target: the molecule itself; test: SEC-MALS

T1 sequence (Q13618 23-388 I342R/L346D): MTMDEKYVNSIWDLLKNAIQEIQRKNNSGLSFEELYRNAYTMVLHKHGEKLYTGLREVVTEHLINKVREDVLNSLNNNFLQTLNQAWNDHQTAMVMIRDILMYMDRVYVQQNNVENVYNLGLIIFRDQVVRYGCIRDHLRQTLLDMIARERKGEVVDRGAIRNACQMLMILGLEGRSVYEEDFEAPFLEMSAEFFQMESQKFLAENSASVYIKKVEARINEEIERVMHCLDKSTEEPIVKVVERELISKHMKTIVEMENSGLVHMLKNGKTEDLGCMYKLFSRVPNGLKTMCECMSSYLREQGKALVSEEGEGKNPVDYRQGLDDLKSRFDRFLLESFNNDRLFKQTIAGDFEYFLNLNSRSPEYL
Chain of Cul3N (human Cul3 N-terminal domain, residues 1-388, I342R L346D) (Q13618 1-388 I342R/L346D): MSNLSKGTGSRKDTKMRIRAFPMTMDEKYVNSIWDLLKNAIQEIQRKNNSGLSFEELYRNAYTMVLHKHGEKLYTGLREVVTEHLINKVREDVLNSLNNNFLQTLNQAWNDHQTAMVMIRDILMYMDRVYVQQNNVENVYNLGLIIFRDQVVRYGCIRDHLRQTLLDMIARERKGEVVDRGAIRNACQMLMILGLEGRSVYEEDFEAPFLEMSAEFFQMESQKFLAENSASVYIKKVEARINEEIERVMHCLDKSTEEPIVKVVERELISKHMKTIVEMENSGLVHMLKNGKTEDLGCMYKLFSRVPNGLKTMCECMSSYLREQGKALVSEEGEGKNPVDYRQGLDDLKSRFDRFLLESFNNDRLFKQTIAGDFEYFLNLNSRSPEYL

Row | Binder | dH [1] [kcal/mol] | Kd [2] [nM] | stoichiometry N [2] | Kd [1] [nM] | stoichiometry N [1] | stoichiometry N [3] | stoichiometry N [4]
1 | KLHL3-BB (human KLHL3 BTB-BACK, residues 24-276) (domain or fragment) RTITVNPAHMGKAFKVMNELRSKQLLCDVMIVAEDVEIEAHRVVLAACSPYFCAMFTGDMSESKAKKIEIKDVDGQTLSKLIDYIYTAEIEVTEENVQVLLPAASLLQLMDVRQNCCDFLQSQLHPTNCLGIRAFADVHTCTDLLQQANAYAEQHFPEVMLGEEFLSLSLDQVCSLISSDKLTVSSEEKVFEAVISWINYEKETRLEHMAKLMEHVRLPLLPRDYLVQTVEEEALIKNNNTCKDFLIEAMKYH | -18.9 | – | – | – | – | – | –
2 | A55BB (A55 BTB-BACK domain, residues 1-250) (domain or fragment) MNNSSELIAVINGFRNSGRFCDISIVINDERINAHKLILSGASEYFSILFSNNFIDSNEYEVNLSHLDYQSVNDLIDYIYGIPLSLTNDNVKYILSTADFLQIGSAITECENYILKNLCSKNCIDFYIYADKYNNKKIESASFNTILQNILRLINDENFKYLTEESMIKILSDDMLNIKNEDFAPLILIKWLESTQQSCTVELLRCLRISLLSPQVIKSLYSHQLVSSIYECITFLNNIAFLDESFPRYH | -10.2 | < 1 | 1 | 3 | 1 | 1 A55BB per Cul3NΔ22 (2:2 complex) | 2
